Measured values from paper PMC5105069, “Structural assemblies of the di- and oligomeric G-protein coupled receptor TGR5 in live cells: an MFIS-FRET and integrative modelling study” (Scientific Reports, 2016).
Positions count from the first letter of the chain named. Names and notes keep the numbering of the source. One block for each binder: values may come before it.

Key:
[1] = biological target: T1, TGR5 wt fused to GFP or mCherry (TGR5 wt-GFP and TGR5 wt-mCherry), Q8TDU6; assay: FRET or BRET; MFIS-FRET in live HEK293 cells; GFP (donor) and mCherry (acceptor) on the C-terminus of TGR5; acceptor titration up to donor:acceptor 1:40; total TGR5 0.5-13 uM; also before and after 10 uM taurocholate (no change); KD2 is of the step tetramer to dimers, modelled by a dimer/tetramer simulation of E_mean against the donor-acceptor ratio with KD1 of the dimer fixed to 10 nM; conditions: remark: other sources report otherwise
T1 chain: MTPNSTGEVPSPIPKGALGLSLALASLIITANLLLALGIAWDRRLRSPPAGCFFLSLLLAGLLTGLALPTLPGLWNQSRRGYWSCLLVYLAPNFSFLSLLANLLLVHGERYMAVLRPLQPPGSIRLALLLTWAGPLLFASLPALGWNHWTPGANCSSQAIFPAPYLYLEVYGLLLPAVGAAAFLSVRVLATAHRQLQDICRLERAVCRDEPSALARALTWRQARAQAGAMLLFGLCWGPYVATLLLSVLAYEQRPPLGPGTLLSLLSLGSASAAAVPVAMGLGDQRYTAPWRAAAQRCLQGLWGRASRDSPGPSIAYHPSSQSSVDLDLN

[2] = biological target: the molecule itself; assay: as above

- KD2 (tetramer to dimers, modeled) [1]: 70 nM
- stoichiometry N [1]: 4
B1: TGR5 wt fused to GFP or mCherry (TGR5 wt-GFP and TGR5 wt-mCherry), Q8TDU6 1-330 (receptor)
chain: T1 chain

B2: TGR5 Y111A fused to GFP or mCherry (receptor, UniProt Q8TDU6 1-330, looked up)
chain: T1 chain with Y111A
notes: TGR5 (GPBAR-1, M-BAR) with Y111A in the ERY motif; Two differently tagged copies (GFP donor, mCherry acceptor), co-expressed; Each copy carries only one fluorescent protein; also called Y111A variant; source: HEK293, transiently transfected, in live cells; not shown: GFP, C-terminal, kept; mCherry, C-terminal, kept
- stoichiometry N [2]: 2

B3: TGR5 Y111F fused to GFP or mCherry (receptor, UniProt Q8TDU6 1-330, looked up)
chain: T1 chain with Y111F
notes: TGR5 (GPBAR-1, M-BAR) with Y111F in the ERY motif; Two differently tagged copies (GFP donor, mCherry acceptor), co-expressed; Each copy carries only one fluorescent protein; also called Y111F variant; source: HEK293, transiently transfected, in live cells; not shown: GFP, C-terminal, kept; mCherry, C-terminal, kept
- stoichiometry N [2]: 4
